{
  "source": "patent US20240272170A1",
  "key": {"[1]": {"biological_target": "T1, … after cleavage to N-terminal arginine (RLIFAG)", "T1 sequence (peptide, C-terminal azidolysine linked to DNA-streptavidin (p-0304))": "RLIFAG", "experiment": "on-chip dynamic sequencing of …, upper trace"}, "[2]": {"biological_target": "peptide …", "experiment": "on-chip dynamic sequencing of [..] with PS691, PS610, PS961; one example trace, segment at about 107-113 min, BR=0.46"}, "[3]": {"biological_target": "peptide with N-terminal RLA", "experiment": "single-molecule on-chip recognition of immobilized peptide, dye-labeled recognizer"}, "[4]": {"biological_target": "T2, synthetic peptide …", "T2 sequence (peptide)": "RLAFSALGAADDD", "experiment": "on-chip dynamic sequencing of a mixture of … and … on one chip, signature of …"}, "[5]": {"biological_target": "T1, … after cleavage to N-terminal arginine (RLIFAG)", "experiment": "on-chip dynamic sequencing of a mixture of … and … on one chip, signature of …"}, "[6]": {"biological_target": "T3, … after cleavage to N-terminal arginine (RLIFAGK)", "T3 sequence (peptide)": "RLIFAGK", "experiment": "on-chip dynamic sequencing of the ubiquitin digest peptide …, kinetic signature plot"}, "[7]": {"biological_target": "peptide RLp…", "experiment": "on-chip dynamic sequencing of RLp[..] with PS691, PS610, PS961; one example trace, segment at about 3-18 min, BR=0.43"}, "[8]": {"biological_target": "RA Peptide (stopped-flow)", "experiment": "stopped-flow rapid kinetics"}, "[9]": {"biological_target": "HL Peptide (stopped-flow)", "experiment": "stopped-flow rapid kinetics"}, "[10]": {"biological_target": "RL Peptide (stopped-flow)", "experiment": "stopped-flow rapid kinetics"}, "[11]": {"biological_target": "T4, RA peptide (X…-FITC, X = R)", "T4 sequence (peptide, FITC on the C-terminal Lys)": "RAKLDEESILKQK", "experiment": "fluorescence polarization titration, recognizer 0-3000 nM, labeled peptide fixed"}, "[12]": {"biological_target": "T2, synthetic peptide …", "experiment": "on-chip dynamic sequencing of …, kinetic signature plot"}, "[13]": {"biological_target": "T5, synthetic peptide …", "T5 sequence (peptide)": "RLIFAYPDDD", "experiment": "on-chip dynamic sequencing of …, kinetic signature plot", "remark": "listed apart in the source"}, "[14]": {"biological_target": "T6, … after cleavage to N-terminal arginine (…)", "T6 sequence (peptide)": "RLAASFAAQQYPDDD", "experiment": "on-chip dynamic sequencing of …, kinetic signature plot"}, "[15]": {"biological_target": "T7, synthetic peptide …", "T7 sequence (peptide)": "RLVFAYPDDD", "experiment": "on-chip dynamic sequencing of …, kinetic signature plot", "remark": "listed apart in the source"}, "[16]": {"biological_target": "T1, … after cleavage to N-terminal arginine (RLIFAG)", "experiment": "on-chip dynamic sequencing of …, kinetic signature plot"}, "[17]": {"biological_target": "T8, synthetic peptide …", "T8 sequence (peptide)": "RLAFAYPDDD", "experiment": "on-chip dynamic sequencing of …, kinetic signature plot", "remark": "listed apart in the source"}, "peptide RLMoFAYPDDD": {"biological_target": "T9, peptide RLMoFAYPDDD", "T9 sequence (peptide, M3 = methionine sulfoxide (Mo))": "RLMFAYPDDD", "experiment": "on-chip dynamic sequencing of RLMoFAYPDDD, example trace"}, "[18]": {"biological_target": "peptide …", "experiment": "single-molecule dynamic sequencing on chip"}, "[19]": {"biological_target": "peptide RLp…", "experiment": "single-molecule dynamic sequencing on chip"}, "[20]": {"biological_target": "T2, synthetic peptide …", "experiment": "on-chip dynamic sequencing of …, example trace"}, "[21]": {"biological_target": "T5, synthetic peptide …", "experiment": "on-chip dynamic sequencing of …, example trace", "remark": "listed apart in the source"}, "[22]": {"biological_target": "T6, … after cleavage to N-terminal arginine (…)", "experiment": "on-chip dynamic sequencing of …, example trace"}, "[23]": {"biological_target": "T7, synthetic peptide …", "experiment": "on-chip dynamic sequencing of …, example trace", "remark": "listed apart in the source"}, "[24]": {"biological_target": "T10, synthetic peptide …", "T10 sequence (peptide)": "RLMFAYPDDD", "experiment": "on-chip dynamic sequencing of …, example trace", "remark": "listed apart in the source"}, "[25]": {"biological_target": "T1, … after cleavage to N-terminal arginine (RLIFAG)", "experiment": "on-chip dynamic sequencing of …, example trace"}, "[26]": {"biological_target": "T8, synthetic peptide …", "experiment": "on-chip dynamic sequencing of …, example trace", "remark": "listed apart in the source"}, "QP304-RAIFAG peptide": {"biological_target": "T11, QP304-RAIFAG peptide", "T11 sequence (peptide)": "RAIFAG", "experiment": "single-molecule on-chip recognition run"}, "[27]": {"biological_target": "T1, … after cleavage to N-terminal arginine (RLIFAG)", "experiment": "on-chip dynamic sequencing of …, lower trace"}, "[28]": {"biological_target": "T4, RA peptide (X…-FITC, X = R)", "experiment": "fluorescence polarization titration, PS691 0-3000 nM"}, "[29]": {"substrate": "I of … / RLp… (IAYPDDD)", "experiment": "on-chip dynamic sequencing of [..] with PS691, PS610, PS961; one example trace, segment at about 247-277 min, BR=0.27"}, "[30]": {"biological_target": "peptide with N-terminal IAA", "experiment": "single-molecule on-chip recognition of immobilized peptide, dye-labeled recognizer"}, "[31]": {"biological_target": "peptide with N-terminal VAA", "experiment": "single-molecule on-chip recognition of immobilized peptide, dye-labeled recognizer"}, "[32]": {"biological_target": "peptide with N-terminal LAA", "experiment": "single-molecule on-chip recognition of immobilized peptide, dye-labeled recognizer"}, "[33]": {"biological_target": "EFIAWLVK after cleavage to N-terminal leucine (LVK)", "experiment": "on-chip dynamic sequencing of the GLP-1 digest peptide EFIAWLVK, kinetic signature plot"}, "[34]": {"biological_target": "EFIAWLV after cleavage to N-terminal leucine (LV)", "experiment": "on-chip dynamic sequencing of EFIAWLV, example trace"}, "[35]": {"biological_target": "EFIAWLV after cleavage to N-terminal leucine (LV)", "experiment": "on-chip dynamic sequencing of EFIAWLV, kinetic signature plot"}, "[36]": {"substrate": "I of … / RLp… (IAYPDDD)", "experiment": "on-chip dynamic sequencing of RLp[..] with PS691, PS610, PS961; one example trace, segment at about 143-155 min, BR=0.25"}, "[37]": {"biological_target": "RLp… after cleavage to N-terminal leucine (Lp…)", "experiment": "on-chip dynamic sequencing of RLp[..] with PS691, PS610, PS961; one example trace, segment at about 20-52 min, BR=0.28"}, "[38]": {"biological_target": "… after cleavage to N-terminal leucine (…)", "experiment": "on-chip dynamic sequencing of [..] with PS691, PS610, PS961; one example trace, segment at about 113-128 min, BR=0.31"}, "[39]": {"biological_target": "… after cleavage to N-terminal leucine (…)", "experiment": "single-molecule dynamic sequencing on chip"}, "[40]": {"biological_target": "RLp… after cleavage to N-terminal leucine (Lp…)", "experiment": "single-molecule dynamic sequencing on chip"}},
  "data": [
    {"binder": "PS691 (designed binder, from a related filing) MHSKFSHAGRICGAKFKVGEPIYRCKECSFDDTCVLCVNCFNPKDHTGHHVYTTICTEFNNGICDCGDKEAWNHTLFCKAEEGGSAGSAAGSGEFMHSKFSHAGRICGAKFKVGEPIYRCKECSFDDTCVLCVNCFNPKDHTGHHVYTTICTEFNNGICDCGDKEAWNHTLFCKAEEGGGSHHHHHHHHHHGGGSGGGSGGGSGLNDFFEAQKIEWHEGGGSGGGSGGGSGLNDFFEAQKIEWHE", "values": [
      {"measurement": "PD printed above the recognition segment (one trace)", "setting": "[1]", "value": 0.21, "unit": "s"},
      {"measurement": "PW (pulse width of the segment in the example trace)", "setting": "[2]", "value": 0.9},
      {"measurement": "median pulse duration (PD)", "setting": "[3]", "value": 0.23, "unit": "s"},
      {"measurement": "median PD (kinetic signature)", "setting": "[4]", "value": 0.21, "unit": "s"},
      {"measurement": "median PD (kinetic signature)", "setting": "[5]", "value": 0.26, "unit": "s"},
      {"measurement": "median PD (kinetic signature)", "setting": "[6]", "value": 0.31, "unit": "s"},
      {"measurement": "PW (pulse width of the segment in the example trace)", "setting": "[7]", "value": 0.54},
      {"measurement": "koff", "setting": "[8]", "value": 69.4, "unit": "s⁻¹"},
      {"measurement": "kon", "setting": "[8]", "value": "2.6e+07", "unit": "M⁻¹ s⁻¹"},
      {"measurement": "koff", "setting": "[9]", "value": 51.4, "unit": "s⁻¹"},
      {"measurement": "koff", "setting": "[10]", "value": 19.7, "unit": "s⁻¹"},
      {"measurement": "Kd", "setting": "[11]", "value": 369, "unit": "nM"},
      {"measurement": "median PD (kinetic signature)", "setting": "[12]", "value": 0.19, "unit": "s"},
      {"measurement": "median PD (kinetic signature)", "setting": "[13]", "value": 0.29, "unit": "s"},
      {"measurement": "median PD (kinetic signature)", "setting": "[14]", "value": 0.17, "unit": "s"},
      {"measurement": "median PD (kinetic signature)", "setting": "[15]", "value": 0.27, "unit": "s"},
      {"measurement": "median PD (kinetic signature)", "setting": "[16]", "value": 0.24, "unit": "s"},
      {"measurement": "median PD (kinetic signature)", "setting": "[17]", "value": 0.22, "unit": "s"},
      {"measurement": "PD printed above the recognition segment (one trace)", "setting": "peptide RLMoFAYPDDD", "value": 0.25, "unit": "s"},
      {"measurement": "RS mean pulse duration (PD)", "setting": "[18]", "value": 0.9, "unit": "s"},
      {"measurement": "RS mean pulse duration (PD)", "setting": "[19]", "value": 0.45, "unit": "s"},
      {"measurement": "PD printed above the recognition segment (one trace)", "setting": "[20]", "value": 0.17, "unit": "s"},
      {"measurement": "PD printed above the recognition segment (one trace)", "setting": "[21]", "value": 0.29, "unit": "s"},
      {"measurement": "PD printed above the recognition segment (one trace)", "setting": "[22]", "value": 0.17, "unit": "s"},
      {"measurement": "PD printed above the recognition segment (one trace)", "setting": "[23]", "value": 0.27, "unit": "s"},
      {"measurement": "PD printed above the recognition segment (one trace)", "setting": "[24]", "value": 0.27, "unit": "s"},
      {"measurement": "PD printed above the recognition segment (one trace)", "setting": "[25]", "value": 0.29, "unit": "s"},
      {"measurement": "PD printed above the recognition segment (one trace)", "setting": "[26]", "value": 0.25, "unit": "s"},
      {"measurement": "pulse duration", "setting": "QP304-RAIFAG peptide", "value": 0.16, "unit": "s"},
      {"measurement": "PD printed above the recognition segment (one trace)", "setting": "[27]", "value": 0.34, "unit": "s"},
      {"measurement": "Kd", "setting": "[28]", "value": 369, "unit": "nM"}
    ]},
    {"binder": "PS961 (designed binder) MPTAASATESAIEDTPAPARPEVDGRTKPKRQPRYHVVLWDDDDHTYQYVVVMLRSLFGHPPSRGYRMAKEMDTQGRVIVLTTTREHAELKRDQIHAFGRDRLLARSKGSMKASIEAEE", "values": [
      {"measurement": "PW (pulse width of the segment in the example trace)", "setting": "[29]", "value": 0.2},
      {"measurement": "median pulse duration (PD)", "setting": "[30]", "value": 0.28, "unit": "s"},
      {"measurement": "median pulse duration (PD)", "setting": "[31]", "value": 0.21, "unit": "s"},
      {"measurement": "median pulse duration (PD)", "setting": "[32]", "value": 1.21, "unit": "s"},
      {"measurement": "median PD (kinetic signature)", "setting": "[33]", "value": 2.99, "unit": "s"},
      {"measurement": "PD printed above the recognition segment (one trace)", "setting": "[34]", "value": 5.92, "unit": "s"},
      {"measurement": "median PD (kinetic signature)", "setting": "[35]", "value": 5.3, "unit": "s"},
      {"measurement": "PW (pulse width of the segment in the example trace)", "setting": "[36]", "value": 0.24},
      {"measurement": "PW (pulse width of the segment in the example trace)", "setting": "[37]", "value": 3.57},
      {"measurement": "PW (pulse width of the segment in the example trace)", "setting": "[38]", "value": 2.93},
      {"measurement": "RS mean pulse duration (PD)", "setting": "[39]", "value": 2.45, "unit": "s"},
      {"measurement": "RS mean pulse duration (PD)", "setting": "[40]", "value": 3.4, "unit": "s"}
    ]}
  ]
}
